Article PMC4972253

What was measured:
VRC01 (human) = assay: BLI
[1] = molecular target: BG505 NFL trimer (Wt, unfixed) (HIV-1, subtype A, strain BG505); assay: native gel or EMSA
[2] = molecular target: JRFL NFL trimer (Wt, unfixed) (HIV-1, subtype B, strain JRFL); assay: native gel or EMSA

Sequence of VRC01 (human) (light, as listed by the source, chain 2 of 2, other chains not shown): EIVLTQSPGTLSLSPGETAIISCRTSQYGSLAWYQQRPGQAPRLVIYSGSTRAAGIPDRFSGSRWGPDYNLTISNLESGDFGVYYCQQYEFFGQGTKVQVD

Substance | relative binding (% of the day 0 response) after 7 days at 37°C in PBS (VRC01 (human)) | stoichiometry N [1] | stoichiometry N [2]
BG505 NFL trimer (Wt, unfixed) (domain or fragment) | 90% | 3 | 
JRFL NFL trimer (Wt, unfixed) (domain or fragment) |  |  | 3
